Article PMC7530888 (Nucleic Acids Research, 2020)

B1: GST-tagged MtbXthA (enzyme)
chain: MPDGTIDGGHPQRPASPRLRSPLLRLATWNVNSIRTRLDRVLDWLGRADVDVLAMQETKCPDGQFPALPLFELGYDVAHVGFDQWNGVAIASRVGLDDVRVGFDGQPSWSGKPEVAATTEARALGATCGGIRVWSLYVPNGRALDDPHYTYKLDWLAALRDTAEGWLRDDPAAPIALMGDWNIAPTDDDVWSTEFFAGCTHVSEPERKAFNAIVDAQFTDVVRPFTPGPGVYTYWDYTQLRFPKKQGMRIDFILGSPALAARVMDAQIVREERKGKAPSDHAPVLVDLHAG
B2: BRCT domain of MtbLigA, His-tagged (domain or fragment)
chain: SVPRTLAGLTIVVTGSLTGFSRDDAKEAIVARGGKAAGSVSKKTNYVVAGDSPGSKYDKAVELGVPILDEDGFRRLLADGPASRT

What was measured:
[1] = target: B2; test: ITC
[2] = target: Full-length His-tagged MtbLigA (M. tuberculosis, UniProt P9WNV1 1-691); test: SPR
GST-tagged MtbXthA = target: B1; test: SPR

Binder | Kd [1] [nM] | further results
YDVAHVGFD [YDV peptide (MtbXthA 75-83)] | 88500 | –
B1 | – | Kd [2]: 67.7 nM
B2 | – | Kd (GST-tagged MtbXthA): 71.4 nM
DGQPSWSGKP [DGQ peptide (MtbXthA 104-113)] | 2470 | –
